# Assay results reported in IntAct's records for PubMed 32101751.
# B1: Ubiquitin carboxyl-terminal hydrolase 15 (Homo sapiens), Q9Y4E8 (parent)
# chain: MAEGGAADLDTQRSDIATLLKTSLRKGDTWYLVDSRWFKQWKKYVGFDSWDKYQMGDQNVYPGPIDNSGLLKDGDAQSLKEHLIDELDYILLPTEGWNKLVSWYTLMEGQEPIARKVVEQGMFVKHCKVEVYLTELKLCENGNMNNVVTRRFSKADTIDTIEKEIRKIFSIPDEKETRLWNKYMSNTFEPLNKPDSTIQDAGLYQGQVLVIEQKNEDGTWPRGPSTPKSPGASNFSTLPKISPSSLSNNYNNMNNRNVKNSNYCLPSYTAYKNYDYSEPGRNNEQPGLCGLSNLGNTCFMNSAIQCLSNTPPLTEYFLNDKYQEELNFDNPLGMRGEIAKSYAELIKQMWSGKFSYVTPRAFKTQVGRFAPQFSGYQQQDCQELLAFLLDGLHEDLNRIRKKPYIQLKDADGRPDKVVAEEAWENHLKRNDSIIVDIFHGLFKSTLVCPECAKISVTFDPFCYLTLPLPMKKERTLEVYLVRMDPLTKPMQYKVVVPKIGNILDLCTALSALSGIPADKMIVTDIYNHRFHRIFAMDENLSSIMERDDIYVFEININRTEDTEHVIIPVCLREKFRHSSYTHHTGSSLFGQPFLMAVPRNNTEDKLYNLLLLRMCRYVKISTETEETEGSLHCCKDQNINGNGPNGIHEEGSPSEMETDEPDDESSQDQELPSENENSQSEDSVGGDNDSENGLCTEDTCKGQLTGHKKRLFTFQFNNLGNTDINYIKDDTRHIRFDDRQLRLDERSFLALDWDPDLKKRYFDENAAEDFEKHESVEYKPPKKPFVKLKDCIELFTTKEKLGAEDPWYCPNCKEHQQATKKLDLWSLPPVLVVHLKRFSYSRYMRDKLDTLVDFPINDLDMSEFLINPNAGPCRYNLIAVSNHYGGMGGGHYTAFAKNKDDGKWYYFDDSSVSTASEDQIVSKAAYVLFYQRQDTFSGTGFFPLDRETKGASAATGIPLESDEDSNDNDNDIENENCMHTN
# partner: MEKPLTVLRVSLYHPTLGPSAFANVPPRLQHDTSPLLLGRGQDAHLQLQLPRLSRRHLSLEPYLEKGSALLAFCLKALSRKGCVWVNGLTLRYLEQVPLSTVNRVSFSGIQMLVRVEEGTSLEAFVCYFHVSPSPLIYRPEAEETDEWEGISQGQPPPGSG
# Variants of: B1
# Details: with tifab_human TIFAB
row,Variant,effect of a mutation on the interaction
1,C298A,decreasing interaction strength
